Assay results reported in patent publication US20030091557A1 (Human Genome Sciences, published 2003).
Each block holds one binder with its values, some of them ahead of it. Bridges are numbered along the chain shown (N, C = ends).

Molecular target: recombinant human ACE-2 (human, UniProt Q9BYF1 18-740, limits assumed)
Assay: cell-based or functional assay

Sequence of recombinant human ACE-2 (Q9BYF1 18-740 limits assumed): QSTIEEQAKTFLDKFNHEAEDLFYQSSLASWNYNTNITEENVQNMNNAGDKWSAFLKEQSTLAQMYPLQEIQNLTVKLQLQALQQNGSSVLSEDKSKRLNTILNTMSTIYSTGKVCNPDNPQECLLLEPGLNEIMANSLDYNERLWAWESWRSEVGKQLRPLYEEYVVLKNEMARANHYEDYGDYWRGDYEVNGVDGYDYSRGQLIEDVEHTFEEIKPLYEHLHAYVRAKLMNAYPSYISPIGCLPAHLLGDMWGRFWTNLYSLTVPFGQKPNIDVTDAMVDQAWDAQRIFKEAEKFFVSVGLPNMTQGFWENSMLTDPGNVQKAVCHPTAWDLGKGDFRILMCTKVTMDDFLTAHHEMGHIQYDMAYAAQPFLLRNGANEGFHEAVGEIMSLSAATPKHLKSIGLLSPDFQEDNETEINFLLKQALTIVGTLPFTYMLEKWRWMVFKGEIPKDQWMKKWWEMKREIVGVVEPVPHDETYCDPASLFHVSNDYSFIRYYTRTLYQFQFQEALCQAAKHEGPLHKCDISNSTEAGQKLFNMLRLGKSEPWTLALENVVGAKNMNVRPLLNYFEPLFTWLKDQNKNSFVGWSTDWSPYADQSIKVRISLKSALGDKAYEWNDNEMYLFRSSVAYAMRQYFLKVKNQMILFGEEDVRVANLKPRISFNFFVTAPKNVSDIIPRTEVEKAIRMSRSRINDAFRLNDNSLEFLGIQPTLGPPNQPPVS

IC50 µM (ACE-2 cleavage of M-2195, fluorometric): 0.068 µM
B1: DX-601 (peptide)
peptide: Ac-GDGFTCSPIRMFPWFRCDLGDPEGGG-NH2
modifications: disulfide 6-17 (inferred)

IC50 µM (ACE-2 cleavage of M-2195, fluorometric): 0.14 µM
B2: DX-599 (peptide)
peptide: Ac-GDRYLCLPQRDKPWKFCNWFDPEGGG-NH2
modifications: disulfide 6-17 (inferred); also: oxidized

IC50 µM (ACE-2 cleavage of M-2195, fluorometric): 0.5 µM
B4: DX-531 (peptide)
peptide: Ac-AGSDWCGTWNNPCFHQGTEGGG-NH2
modifications: disulfide 6-13 (inferred); also: oxidized

IC50 µM (ACE-2 cleavage of M-2195, fluorometric): 0.12 µM
B7: DX-602 (peptide)
peptide: Ac-GDFSPCKALRHSPWWVCPSGDPEGGG-NH2
modifications: disulfide 6-17 (inferred)

The next lines start with the binder.

B3: DX-525 (peptide)
peptide: Ac-GSRGFCRDSSCSFPAPGEGGG-NH2
modifications: disulfide 6-11 (inferred); also: oxidized
IC50 µM (ACE-2 cleavage of M-2195, fluorometric): 1 µM

B5: DX-529 (peptide)
peptide: Ac-AGWEVCHWAPMMCKHGGTEGGG-NH2
modifications: disulfide 6-13 (inferred); also: oxidized
IC50 µM (ACE-2 cleavage of M-2195, fluorometric): 0.4 µM

B6: DX-524 (peptide)
peptide: Ac-GSRIGCRDSRCNWWAPGEGGG-NH2
modifications: disulfide 6-11 (inferred); also: oxidized
IC50 µM (ACE-2 cleavage of M-2195, fluorometric): 0.6 µM

B8: DX-530 (peptide)
peptide: Ac-AGQKECKFGYPHCLPWGTEGGG-NH2
modifications: disulfide 6-13 (inferred); also: oxidized
IC50 µM (ACE-2 cleavage of M-2195, fluorometric): 30 µM

B9: DX-513 (peptide)
peptide: Ac-GDLHACRPVRGDPWWACTLGDPEGGG-NH2
modifications: disulfide 6-17 (inferred); also: oxidized
IC50 µM (ACE-2 cleavage of M-2195, fluorometric): 0.09 µM

B10: DX-512 (peptide)
peptide: Ac-GDRLHCKPQRQSPWMKCQHLDPEGGG-NH2
modifications: disulfide 6-17 (inferred)
IC50 µM (ACE-2 cleavage of M-2195, fluorometric): 0.06 µM
